Experimental findings from patent publication US20240301071A1 (Alector, published 2024) are described below.

B1: 3F9-20 (antibody, human IgG1, V domains shown)
VH: EVQLLESGGGLVQPGGSLRLSCAASGFTFSSYAMSWVRQAPGKGLEWVATISEYGGSYTYYAESVKGRFTISRDNSKNTLYLQMNSLRAEDTAVYYCARPPYDDYYGGFQYWGQGTLVTVSS
VL: DIQLTQSPSSLSASVGDRVTITCRASKSVSSGGYSYMHWYQQKPGKAPKLLIYLASNLESGVPSRFSGSGSGTDFTLTISSVQPEDFATYYCQHNRELPPTFGQGTKLEIK
notes: also called mAb 3F9-20
B2: 3F9-18 (antibody, human IgG1, V domains shown)
VH: B1 VH
VL: B1 VL with P100S
notes: also called mAb 3F9-18
B3: 3F9-25 (antibody, human IgG1, V domains shown)
VH: B1 VH
VL: B1 VL with P100W
notes: also called mAb 3F9-25
B4: 3F9-17 (antibody, human IgG1, V domains shown)
VH: B1 VH with Q110R
VL: B1 VL with P100W
notes: also called mAb 3F9-17
B5: 3F9-21 (antibody, human IgG1, V domains shown)
VH: B1 VH
VL: B1 VL with P100T
notes: also called mAb 3F9-21
B6: 3F9-1 (antibody, human IgG1, V domains shown)
VH: B1 VH with Q110A
VL: B1 VL with P100S
notes: also called mAb 3F9-1
B7: 3F9-11 (antibody, human IgG1, V domains shown)
VH: B1 VH with Q110R
VL: B1 VL with P100I
notes: also called mAb 3F9-11
B8: 3F9-19 (antibody, human IgG1, V domains shown)
VH: B1 VH
VL: B1 VL with P100I
notes: also called mAb 3F9-19
B9: 3F9-5 (antibody, human IgG1, V domains shown)
VH: B1 VH with Q110A
VL: B1 VL with P100T
notes: also called mAb 3F9-5
B10: 3F9-13 (antibody, human IgG1, V domains shown)
VH: B1 VH with Q110R
VL: B1 VL with P100T
notes: also called mAb 3F9-13
B11: 3F9-2 (antibody, human IgG1, V domains shown)
VH: B1 VH with Q110A
VL: B1 VL with P100C
notes: also called mAb 3F9-2
B12: 3F9-3 (antibody, human IgG1, V domains shown)
VH: B1 VH with Q110A
VL: B1 VL with P100I
notes: also called mAb 3F9-3
B13: 3F9-7 (antibody, human IgG1, V domains shown)
VH: B1 VH with Q110A
VL: B1 VL with P100A
notes: also called mAb 3F9-7
B14: 3F9-12 (antibody, human IgG1, V domains shown)
VH: B1 VH with Q110R
VL: B1 VL
notes: also called mAb 3F9-12
B15: 3F9-15 (antibody, human IgG1, V domains shown)
VH: B1 VH with Q110R
VL: B1 VL with P100A
notes: also called mAb 3F9-15
B16: 3F9-16 (antibody, human IgG1, V domains shown)
VH: B1 VH with Q110R
VL: B1 VL with P100G
notes: also called mAb 3F9-16
B17: 3F9-24 (antibody, human IgG1, V domains shown)
VH: B1 VH
VL: B1 VL with P100G
notes: also called mAb 3F9-24
B18: 3F9-9 (antibody, human IgG1, V domains shown)
VH: B1 VH with Q110A
VL: B1 VL with P100W
notes: also called mAb 3F9-9
B19: 3F9-23 (antibody, human IgG1, V domains shown)
VH: B1 VH
VL: B1 VL with P100A
notes: also called mAb 3F9-23
B20: 3F9-4 (antibody, human IgG1, V domains shown)
VH: B1 VH with Q110A
VL: B1 VL
notes: also called mAb 3F9-4
B21: 3F9-8 (antibody, human IgG1, V domains shown)
VH: B1 VH with Q110A
VL: B1 VL with P100G
notes: also called mAb 3F9-8
B22: 3F9-6 (antibody, human IgG1, V domains shown)
VH: B1 VH with Q110A
VL: B1 VL with P100V
notes: also called mAb 3F9-6
B23: 3F9-10 (antibody, human IgG1, V domains shown)
VH: B1 VH with Q110R
VL: B1 VL with P100S
notes: also called mAb 3F9-10

Where a chain is given by its changes, count along the chain named.

T2 sequence (P78324 31-504): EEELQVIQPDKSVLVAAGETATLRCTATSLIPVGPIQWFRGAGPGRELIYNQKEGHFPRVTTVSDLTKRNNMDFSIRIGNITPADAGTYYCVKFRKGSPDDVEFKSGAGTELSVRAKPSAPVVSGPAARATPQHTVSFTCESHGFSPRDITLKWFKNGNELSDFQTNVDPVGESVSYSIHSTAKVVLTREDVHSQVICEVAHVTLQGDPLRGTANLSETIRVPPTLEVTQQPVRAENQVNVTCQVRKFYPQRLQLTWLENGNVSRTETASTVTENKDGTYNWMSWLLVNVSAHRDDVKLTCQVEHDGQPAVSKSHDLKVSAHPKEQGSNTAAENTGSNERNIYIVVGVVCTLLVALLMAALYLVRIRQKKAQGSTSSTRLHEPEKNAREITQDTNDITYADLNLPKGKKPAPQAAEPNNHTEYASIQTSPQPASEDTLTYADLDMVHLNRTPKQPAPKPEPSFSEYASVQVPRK

One experiment deals with T1, human SIRPA on human macrophages (primary monocyte-derived macrophages; U937 line) (human, UniProt P78324 31-504). Nature of the experiment: cell-based or functional assay.
T1 sequence (P78324 31-370): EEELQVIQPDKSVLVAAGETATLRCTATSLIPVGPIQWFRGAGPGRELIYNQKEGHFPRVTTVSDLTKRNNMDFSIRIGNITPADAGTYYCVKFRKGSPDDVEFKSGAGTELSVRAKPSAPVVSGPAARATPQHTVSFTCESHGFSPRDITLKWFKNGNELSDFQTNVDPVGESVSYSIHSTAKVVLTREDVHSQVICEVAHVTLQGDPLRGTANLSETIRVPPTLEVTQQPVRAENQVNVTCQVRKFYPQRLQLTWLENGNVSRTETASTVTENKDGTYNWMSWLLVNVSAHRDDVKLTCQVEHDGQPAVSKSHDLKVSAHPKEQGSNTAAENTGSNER
For the molecule B1, the “SIRPA IC50 (nM), downregulation on U937 cells” value was 0.152 nM and the “SIRPA Max % DR, U937 cells” value is 75%.

For B2, the “SIRPA IC50 (nM), downregulation on U937 cells” value came to 2.19 nM and the “SIRPA Max % DR, U937 cells” value turned out to be 71%.

Another experiment addresses T2, human SIRPA v1 on BWZ cells (BWZ-huSIRPA) (human, UniProt P78324 31-504).
T2 construct: also called BWZ cells overexpressing human SIRPA; BWZ-huSIRPA v1 cells
Nature of the experiment: flow cytometry titration on BWZ-huSIRPA cells, 4 C. As for the experimental part: After addition of fluorescently labeled secondary antibody and brief washing steps, MFI values as a function of titrated antibody concentration was recorded via FACS analysis. […] Receptor bound antibodies were detected by staining cells with anti-human IgG PE secondary antibody. Curves were fit using nonlinear regression analysis with Graphpad Prism 6 software.
On the technique in general: Flow cytometry measures light scatter and fluorescence of single cells or particles in a stream.
For the molecule B3, the EC50 is 0.96 nM.

In turn, B1 showed an EC50 of 0.49 nM.

On to B4, for which the EC50 came to 0.61 nM.

B2 registered an EC50 of 0.51 nM. The EC50 values of the last two molecules are within 1.5-fold of each other.

B5 had an EC50 of 0.64 nM.

Another experiment deals with T3, histidine-tagged human SIRPA v1 (Novoprotein) (human, UniProt P78324 31-370, limits assumed).
T3 construct: bought, soluble; also called huSIRPA; soluble huSIRPA; not shown: histidine tag
T3 sequence (P78324 31-370 limits assumed): as the sequence (P78324 31-370) above
Nature of the experiment: BLI (Octet), antibody on anti-human IgG Fc sensor, His-huSIRPA in solution, single-curve 1:1 fit. As to the method:
(§1) Initial characterization of affinity matured anti-SIRPA antibodies disclosed herein comprised acquiring antigen affinity measurements using bio-layer interferometry (BLI) on a Pall ForteBio Octet RED96 instrument. Immobilized anti-mouse IgG Fc or anti-human IgG Fc antibodies captured murine anti-SIRPA 3F79 antibody and humanized anti-SIRPA 3F79 antibody on biosensors, respectively. Single cycle kinetics were performed with 25 nM huSIRPA [which variant?] or 50 nM huSIRPB 1 flowed over captured antibody 3F79 to record traces. Data analysis was performed using ForteBio Data Analysis Software, version 9.0. Standard kinetic buffer (PBS, 0.100 BSA, 0.02% Tween-20, pH 7.2) was used for the assay and for preparing reagents. […] 50 nM of histidine-tagged human SIRPA vi or human SIRPB1 (Novoprotein, Summit, NJ, USA) were then bound to the captured anti-SIRPA antibody coated surface (200 s association time, 900 s dissociation time). […] Single-curve kinetic analysis was performed using a 1:1 interaction model to extract association and dissociation rate constants (ka and kd, respectively) for each antibody. Affinity constants (KD) were calculated from the ratio kd/ka.
(BLI is a label-free optical method that tracks binding on a fibre tip over time.)
Turning to B6, the affinity, expressed as Kd, was 2.09 nM; the koff came out at 0.000222 s⁻¹; the kon stood at 106000 M⁻¹ s⁻¹.

Turning to B3, the Kd was determined as 1.06 nM, the koff came out at 0.000162 s⁻¹ and the kon is 153000 M⁻¹ s⁻¹.

With B7, the Kd was 1.43 nM, the koff was determined as 0.000192 s⁻¹ and the kon came out at 134000 M⁻¹ s⁻¹.

Molecule B8 gave a Kd of 1.29 nM, a koff of 0.000181 s⁻¹ and a kon of 141000 M⁻¹ s⁻¹.

Consider B1, for which the Kd was determined as 0.85 nM, the koff was determined as 0.000128 s⁻¹ and the association rate constant (kon) is 150000 M⁻¹ s⁻¹.

As for B9, the Kd came out at 2.95 nM, the koff is 0.000276 s⁻¹ and the kon was 93600 M⁻¹ s⁻¹.

B10 showed a dissociation constant Kd of 1.38 nM, a koff of 0.000201 s⁻¹ and a kon of 146000 M⁻¹ s⁻¹.

For the molecule B4, the Kd worked out at 1.7 nM, the off-rate (koff) was determined as 0.000238 s⁻¹ and the on-rate (kon) came to 140000 M⁻¹ s⁻¹.

In the case of B11, the Kd was 2.06 nM, the koff is 0.000222 s⁻¹ and the association rate constant (kon) came to 108000 M⁻¹ s⁻¹.

Molecule B12 came in with a Kd of 4.43 nM, a koff of 0.000416 s⁻¹ and a kon of 93900 M⁻¹ s⁻¹.

The molecule B2 had a Kd of 0.419 nM, a koff of 5.74e-05 s⁻¹ and a kon of 137000 M⁻¹ s⁻¹.

The molecule B13 returned a Kd of 1.81 nM, a koff of 0.00018 s⁻¹ and a kon of 99200 M⁻¹ s⁻¹.

Turning to B14, the Kd stood at 0.429 nM, the koff is 5.96e-05 s⁻¹ and the kon worked out at 139000 M⁻¹ s⁻¹.

Turning to B15, the affinity, expressed as Kd, was 6.28 nM; the koff turned out to be 0.000362 s⁻¹; the kon was determined as 57600 M⁻¹ s⁻¹.

Turning to B16, the affinity, expressed as Kd, was 1.27 nM; the koff came to 0.000151 s⁻¹; the kon amounted to 119000 M⁻¹ s⁻¹.

In the case of B17, the dissociation constant (Kd) came out at 1.07 nM, the koff was 0.000155 s⁻¹ and the on-rate constant (kon) is 144000 M⁻¹ s⁻¹.

Regarding B18, the Kd is 3.38 nM, the koff is 0.000302 s⁻¹ and the kon amounted to 89400 M⁻¹ s⁻¹.

B19 yielded a Kd of 0.539 nM, a koff of 9.11e-05 s⁻¹ and a kon of 169000 M⁻¹ s⁻¹.

B20 had a Kd of 1.79 nM, a dissociation rate constant (koff) of 0.000203 s⁻¹ and an on-rate constant (kon) of 113000 M⁻¹ s⁻¹.

As for B21, the Kd came out at 3.6 nM, the koff was found to be 0.000276 s⁻¹ and the kon is 76600 M⁻¹ s⁻¹.

B22 yielded a Kd of 1.65 nM, a koff of 0.000192 s⁻¹ and a kon of 116000 M⁻¹ s⁻¹.

For B5, the Kd came out at 1.03 nM, the koff stood at 0.000152 s⁻¹ and the kon stood at 148000 M⁻¹ s⁻¹.

In the case of B23, the Kd amounted to 1.51 nM, the dissociation rate constant (koff) amounted to 0.000201 s⁻¹ and the association rate constant (kon) was found to be 134000 M⁻¹ s⁻¹.

In another experiment the target is T3, histidine-tagged human SIRPA v1 …. Nature of the experiment: BLI (Octet). As for the experimental part:
as §1
For B1, the “fold increase in affinity relative to parental h3F9” value was approximately 10 fold.

B2: the “fold increase in affinity relative to parental h3F9” value is approximately 10 fold.

For the molecule B14, the “fold increase in affinity relative to parental h3F9” value is approximately 10 fold.

For B19, the “fold increase in affinity relative to parental h3F9” value was approximately 10 fold.

The next experiment has as its target T1, human SIRPA on human macrophages …. Nature of the experiment: cell-based or functional assay. This is another data set of the same source.
B1: the “Phagocytosis, fold increase over baseline activity” value was determined as 1.62 fold; the “SIRPA IC50 (nM), downregulation on human primary macrophages” value stood at 0.0283 nM; the “SIRPA Max % DR, human primary macrophages” value is 90%.

As to B2, the “Phagocytosis, fold increase over baseline activity” value turned out to be 1.52 fold; the “SIRPA IC50 (nM), downregulation on human primary macrophages” value worked out at 0.0174 nM; the “SIRPA Max % DR, human primary macrophages” value stood at 90%.

Usually EC50 stands for the concentration needed to bring the measured effect to its halfway point. Higher therefore signals lower potency in that assay. In general, Kd refers to the concentration at which binding is half-saturated. Higher therefore signals a looser complex. As usually defined, the koff is the rate constant with which the complex falls apart. Low readings indicate a long-lived complex, high ones a short-lived complex. By kon is commonly meant a measure of how fast the partners come together. Lower therefore signals slow association.
